Results as given in patent publication US20260232800A1 (ADAPTIMMUNE, published 2026).

biological target: complex of PRAME peptide … (SEQ ID NO: 1) and HLA-A*02:01, presented on peptide-pulsed T2 cells (human); assay: cell-based or functional assay

Binder | EC50 (peptide concentration required to induce half-maximal T-cell activation; IFNγ supernatant ELISA, transduced primary T cells with peptide-pulsed T2 cells)
TCR 3 (ADB02780_025) (TCR, V domains shown) V domain 1: GQQLNQSPQSMFIQEGEDVSMNCTSSSIFNTWLWYKQDPGEGPVLLIALYKAGELTSNGRLTAQFGITRKDSFLNISASIPSDVGIYFCAGQASGTYKYIFGTGTRLKVLA V domain 2: EAQVTQNPRYLITVTGKKLTVTCSQNMNHEYMSWYRQDPGLGLRQIYYSINVEVTDKGDVPEGYKVSRKEKRNFPLILESPSPNQTSLYFCASSHGTSGEQYFGPGTRLTVT | -7.8 log10 M
TCR 6 (ADB02780_070) (TCR, V domains shown) V domain 1: GQQLNQSPQSMFIQEGEDVSMNCTSSSIFVTWLWYKQDPGEGPVLLIALYKAGELTSNGRLTAQFGITRKDSFLNISASIPSDVGIYFCAGQASGTYKYIFGTGTRLKVLA V domain 2: EAQVTQNPRYLITVTGKKLTVTCSQNMNHEYMSWYRQDPGLGLRQIYYSINVEVTDKGDVPEGYKVSRKEKRNFPLILESPSPNQTSLYFCASSHGTSGEQYFGPGTRLTVT | -8.8 log10 M
TCR 5 (ADB02780_063) (TCR, V domains shown) V domain 1: GQQLNQSPQSMFIQEGEDVSMNCTSSSIFETWLWYKQDPGEGPVLLIALYKAGELTSNGRLTAQFGITRKDSFLNISASIPSDVGIYFCAGQASGTYKYIFGTGTRLKVLA V domain 2: EAQVTQNPRYLITVTGKKLTVTCSQNMNHEYMSWYRQDPGLGLRQIYYSINVEVTDKGDVPEGYKVSRKEKRNFPLILESPSPNQTSLYFCASSHGTSGEQYFGPGTRLTVT | -8.8 log10 M
TCR 4 (ADB02780_062) (TCR, V domains shown) V domain 1: GQQLNQSPQSMFIQEGEDVSMNCTSSSIFLTWLWYKQDPGEGPVLLIALYKAGELTSNGRLTAQFGITRKDSFLNISASIPSDVGIYFCAGQASGTYKYIFGTGTRLKVLA V domain 2: EAQVTQNPRYLITVTGKKLTVTCSQNMNHEYMSWYRQDPGLGLRQIYYSINVEVTDKGDVPEGYKVSRKEKRNFPLILESPSPNQTSLYFCASSHGTSGEQYFGPGTRLTVT | -8.7 log10 M

More lines, now with the values ahead:

EC50 (peptide concentration required to induce half-maximal T-cell activation; IFNγ supernatant ELISA, transduced primary T cells with peptide-pulsed T2 cells) | Binder
-7.8 log10 M | TCR 8 (ADB02780_106) (TCR, V domains shown) V domain 1: GQQLNQSPQSMFIQEGEDVSMNCTSSSIFATWLWYKQDPGEGPVLLIALYKAGELTSNGRLTAQFGITRKDSFLNISASIPSDVGIYFCAGQASGTYKYIFGTGTRLKVLA V domain 2: EAQVTQNPRYLITVTGKKLTVTCSQNMNHEYMSWYRQDPGLGLRQIYYSINVEVTDKGDVPEGYKVSRKEKRNFPLILESPSPNQTSLYFCASSHGTSGEQYFGPGTRLTVT
-7.8 log10 M | TCR 9 (ADB02780_107) (TCR, V domains shown) V domain 1: GQQLNQSPQSMFIQEGEDVSMNCTSSSIFMTWLWYKQDPGEGPVLLIALYKAGELTSNGRLTAQFGITRKDSFLNISASIPSDVGIYFCAGQASGTYKYIFGTGTRLKVLA V domain 2: EAQVTQNPRYLITVTGKKLTVTCSQNMNHEYMSWYRQDPGLGLRQIYYSINVEVTDKGDVPEGYKVSRKEKRNFPLILESPSPNQTSLYFCASSHGTSGEQYFGPGTRLTVT
-8.7 log10 M | TCR 7 (ADB02780_077) (TCR, V domains shown) V domain 1: GQQLNQSPQSMFIQEGEDVSMNCTSSSIFHTWLWYKQDPGEGPVLLIALYKAGELTSNGRLTAQFGITRKDSFLNISASIPSDVGIYFCAGQASGTYKYIFGTGTRLKVLA V domain 2: EAQVTQNPRYLITVTGKKLTVTCSQNMNHEYMSWYRQDPGLGLRQIYYSINVEVTDKGDVPEGYKVSRKEKRNFPLILESPSPNQTSLYFCASSHGTSGEQYFGPGTRLTVT
